T1: CEACAM6 protein on 721.221 cells (human, UniProt P40199 35-142)
T1 construct: also called CD66c
T1 sequence: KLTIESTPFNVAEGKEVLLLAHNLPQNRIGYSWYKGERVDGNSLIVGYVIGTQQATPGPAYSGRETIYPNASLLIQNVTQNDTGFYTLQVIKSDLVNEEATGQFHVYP

T2: CD99-Ig fusion protein (control) (human, UniProt P14209 23-122, limits assumed)
T2 construct: extracellular domain; Control fusion protein produced in COS-7 cells; not shown: human IgG1 (Fc portion)
T2 sequence (looked up): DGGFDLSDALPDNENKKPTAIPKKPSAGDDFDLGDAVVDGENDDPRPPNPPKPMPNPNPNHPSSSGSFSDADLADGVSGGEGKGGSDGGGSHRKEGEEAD

B1: CEACAM1-Ig fusion protein (extracellular portion of CEACAM1 fused to the Fc portion of human IgG1) (Fc fusion)
chain: QLTTESMPFNVAEGKEVLLLVHNLPQQLFGYSWYKGERVDGNRQIVGYAIGTQQATPGPANSGRETIYPNASLLIQNVTQNDTGFYTLQVIKSDLVNEEATGQFHVYP
notes: also called CCM1-Ig; soluble CEACAM1-Ig; not shown: Fc portion of human IgG1

Columns and labels:
Assay in all cases: flow cytometry on stably transfected 721.221 cells
[1] = target: T1, CEACAM6 protein on 721.221 cells
[2] = target: B1
[3] = target: T2, CD99-Ig fusion protein (control)

Row | binding result [1] | binding result [2] | binding result [3] | Binder
1 | no binding |  |  | B1
2 |  | no binding |  | CCM6-L44Q (CEACAM6 with 44L changed to 44Q) (receptor, also called CEACAM6-L44Q) KLTIESTPFNVAEGKEVLLLAHNLPQNRIGYSWYKGERVDGNSQIVGYVIGTQQATPGPAYSGRETIYPNASLLIQNVTQNDTGFYTLQVIKSDLVNEEATGQFHVYP
3 |  | no binding | no binding | CCM1-RQ43,44SL (CEACAM1 with S and L at positions 43 and 44 instead of R and Q) (receptor, also called CEACAM1-RQ43,44SL) QLTTESMPFNVAEGKEVLLLVHNLPQQLFGYSWYKGERVDGNSLIVGYAIGTQQATPGPANSGRETIYPNASLLIQNVTQNDTGFYTLQVIKSDLVNEEATGQFHVYP
4 |  | no binding |  | CCM1-R43A (CEACAM1 with 43R changed to 43A) (receptor, The expression level was lower than that of the other transfectants; also called CEACAM1-R43A) QLTTESMPFNVAEGKEVLLLVHNLPQQLFGYSWYKGERVDGNAQIVGYAIGTQQATPGPANSGRETIYPNASLLIQNVTQNDTGFYTLQVIKSDLVNEEATGQFHVYP
5 |  |  | no binding | CCM6-SL43,44RQ (CEACAM6 with R and Q at positions 43 and 44 instead of S and L) (receptor, also called CEACAM6-SL43,44RQ) KLTIESTPFNVAEGKEVLLLAHNLPQNRIGYSWYKGERVDGNRQIVGYVIGTQQATPGPAYSGRETIYPNASLLIQNVTQNDTGFYTLQVIKSDLVNEEATGQFHVYP
6 |  | no binding |  | CCM6-S43R (CEACAM6 with 43S changed to 43R) (receptor, also called CEACAM6-S43R) KLTIESTPFNVAEGKEVLLLAHNLPQNRIGYSWYKGERVDGNRLIVGYVIGTQQATPGPAYSGRETIYPNASLLIQNVTQNDTGFYTLQVIKSDLVNEEATGQFHVYP
7 |  | no binding |  | CCM1-Q44L (CEACAM1 with 44Q changed to 44L) (receptor, also called CEACAM1-Q44L) QLTTESMPFNVAEGKEVLLLVHNLPQQLFGYSWYKGERVDGNRLIVGYAIGTQQATPGPANSGRETIYPNASLLIQNVTQNDTGFYTLQVIKSDLVNEEATGQFHVYP
